Measured values from patent US20260167706A1 (ADRENOMED, published 2026).
Like-named read-outs stand apart in the source and are kept apart here. Where no end group is shown, it is not given here.

B1: human Adrenomedullin (mature ADM; amidated ADM; bio-ADM), amino acids 1-52 (peptide)
peptide: YRQSMNNFQGLRSFGCRFGTCTVQKLAHQIYQFTDKDKDNVAPRSKISPQGY-NH2
modifications: ends and bridges not checked

What was measured:
[1] = target: T1, human recombinant adrenomedullin receptor (CRLR + RAMP3) (human); assay: cell-based or functional assay
T1 sequence (Q16602 whole entry, chain 1 of 2): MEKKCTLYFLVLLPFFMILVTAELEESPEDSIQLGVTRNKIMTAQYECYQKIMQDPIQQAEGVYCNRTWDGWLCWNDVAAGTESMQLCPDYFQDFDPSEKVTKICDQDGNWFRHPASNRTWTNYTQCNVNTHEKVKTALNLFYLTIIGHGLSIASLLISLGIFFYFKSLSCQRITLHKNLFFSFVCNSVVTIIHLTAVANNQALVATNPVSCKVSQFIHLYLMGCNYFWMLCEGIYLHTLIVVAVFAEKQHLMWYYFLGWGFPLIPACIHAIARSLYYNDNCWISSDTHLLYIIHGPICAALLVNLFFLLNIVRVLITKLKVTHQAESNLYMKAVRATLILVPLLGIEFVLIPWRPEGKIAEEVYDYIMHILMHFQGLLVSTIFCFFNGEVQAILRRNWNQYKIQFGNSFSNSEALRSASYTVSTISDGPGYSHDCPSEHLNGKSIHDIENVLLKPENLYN
T1 sequence (O60896 whole entry, chain 2 of 2, further chain): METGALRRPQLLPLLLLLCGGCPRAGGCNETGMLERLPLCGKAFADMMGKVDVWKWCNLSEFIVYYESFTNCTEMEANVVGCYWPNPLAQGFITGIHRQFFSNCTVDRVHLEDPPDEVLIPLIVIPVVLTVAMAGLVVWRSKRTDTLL

[2] = target: T1, human recombinant adrenomedullin …; assay: cell-based or functional assay; remark: listed apart in the source

Binder | EC50 (read off the curve); cAMP, % activation [1] [nM] | EC50 (read off the curve); cAMP, % activation [2] [nM]
YRQSMNQGSRSNGCRFGTCTFQKLAHQIYQLTDKDKDGMAPRNKISPQGY-NH2 (ends and bridges not checked) [Murine ADM 1-50] | ~0.08 | 
B1 |  | ~1
